Test [1] concerns the target T1, human serum albumin (human, UniProt P02768 25-609).
T1 construct: mature; Bought protein; biotinylated in the Octet and HTRF assays; also called HSA; HuSA
As to the kind of experiment: Biacore sensorgram on serum albumin (HSA).

In test [2] the target is T1, human serum albumin. Put plainly: binding ELISA on coated albumin, pH 6.0, panel 'HSA Binding at pH 6.0'. Here is the method:
(§1) Briefly, ELISA was performed as follow:
(§2) Human (Sigma-Aldrich); Cynomolgus and Mouse (Abcam); Equine (Abcam); Canine (Abcam); Mouse (Sigma-Aldrich); Rabbit (Sigma-Aldrich); Porcine (Sigma-Aldrich);, and Rat (Sigma-Aldrich) serum albumin were coated overnight on 96 well plates (Corning Costar) at 1 μg/ml in PBS at the appropriate pH (pH 6.0 or 7.4). Plates were saturated using 5% Casein (Sigma-Aldrich) buffer in PBS. […] Plates were then washed and AFFIMER® proteins were detected using a biotinylated polyclonal antibody anti-Cystatin (R&D System) for 90 minutes. After washing, streptavidin-HRP (Thermo Fisher Scientific) was added and incubated for 30 minutes.
For orientation: An ELISA detects its analyte on a solid surface through an enzyme-linked reagent.

Test [3] deals with T2, canine serum albumin (canine, UniProt P49822 25-608). Put plainly: binding ELISA, coated albumin, pH 7.4. As to the method:
as §1, §2

The target of the next test is rabbit serum albumin (rabbit, UniProt P49065 25-608). As to the kind of experiment: binding ELISA, coated albumin, pH 7.4. As to the method: as §1, §2
Test [4] deals with T3, rat serum albumin (rat, UniProt P02770 25-608). Put plainly: binding ELISA, coated albumin, pH 7.4. Here is the method: as §1, §2
Test [5] addresses T4, porcine serum albumin (porcine, UniProt P08835 25-607). Put plainly: binding ELISA, coated albumin, pH 7.4. As to the method: as §1, §2
Test [6] has as its target T5, equine serum albumin (equine, UniProt P35747 25-607). As to the kind of experiment: binding ELISA, coated albumin, pH 7.4. Here is the method: as §1, §2
Test [7] has as its target T6, cynomolgus serum albumin (cynomolgus).
T6 construct: also called CSA; cyno serum albumin
As to the kind of experiment: binding ELISA, coated albumin, pH 7.4. Here is the method: as §1, §2

For test [8], the target named is T7, mouse serum albumin (mouse, UniProt P07724 25-608).
T7 construct: also called MSA
Put plainly: binding ELISA, coated albumin, pH 7.4. As to the method: as §1, §2

In test [9] the target is T1, human serum albumin. As to the kind of experiment: binding ELISA, coated albumin, pH 7.4. Here is the method: as §1, §2
Test [10] concerns the target T6, cynomolgus serum albumin. As to the kind of experiment: BLI (Octet), biotinylated albumin on SA sensor, pH 6.0. As to the method: (§3) Biotinylated antigen was captured onto SA sensors at 1 μg/ml for 600 seconds in a buffer comprising PBS-T (0.01% Tween 20)+1% casein at either pH 6.0 or 7.4. Association was carried out for 300 seconds and dissociation for 600 seconds, and regeneration was performed using 10 mM glycine pH 1.5 (GE Healthcare) for 3×5 seconds. All steps were carried out at 1000 rpm and 25° C. Purified AFFIMER® polypeptide in two-fold serial dilutions was analyzed at a starting concentration of approximately 10× K_{D value}. Kinetics analyses were carried out using the Octet data analysis software, subtracting the reference sensor (loaded with antigen), aligning the Y-axis to baseline, and using inter-step correction to align association to dissociation. Savitzky-Golay filtering was applied and the data processed. Analysis of the data was carried out with a 1:1 model, global fit, Rₘₐₓ unlinked by sensor.
On the technique in general: Biolayer interferometry detects binding as a change in optical thickness at a sensor tip.

Test [11] has as its target T7, mouse serum albumin. Described as above. As to the method: as §3
Test [12] has as its target T1, human serum albumin. The description is as above. As to the method:
as §3

Test [13] has as its target T6, cynomolgus serum albumin. As to the kind of experiment: Octet biolayer interferometry, biotinylated albumin on SA sensors, pH 6.0. Here is the method:
as §3

The target of test [14] is T7, mouse serum albumin. Described as above. As to the method:
as §3

The target of test [15] is T1, human serum albumin. The test is described as above. Here is the method: as §3
The target of test [16] is T6, cynomolgus serum albumin. Put plainly: BLI (Octet), biotinylated albumin on SA sensor, pH 7.4. As to the method: as §3
For test [17], the target named is T7, mouse serum albumin. Described as above. Here is the method:
as §3

The target of test [18] is T1, human serum albumin. The description is as above. As to the method:
as §3

Test [19] concerns the target T6, cynomolgus serum albumin. As to the kind of experiment: Octet biolayer interferometry, biotinylated albumin on SA sensors, pH 7.4. As to the method:
as §3

Test [20] addresses T7, mouse serum albumin. The description is as above. As to the method:
as §3

In test [21] the target is T1, human serum albumin. The description is as above. Here is the method: as §3
The target of test [22] is T3, rat serum albumin. Put plainly: binding ELISA on coated albumin, pH 6.0, panel 'Rat SA Binding at pH 6.0'. Here is the method: as §1, §2
The target in test [23] is T6, cynomolgus serum albumin. Put plainly: binding ELISA on coated albumin, pH 6.0, panel 'CSA Binding at pH 6.0'. Here is the method: as §1, §2
Test [24] concerns the target T7, mouse serum albumin. Put plainly: binding ELISA on coated albumin, pH 6.0, panel 'MSA Binding at pH 6.0'. Here is the method:
as §1, §2

Test [25] has as its target T2, canine serum albumin. Put plainly: binding ELISA on coated albumin, pH 6.0, panel 'Canine SA Binding at pH 6.0'. Here is the method: as §1, §2
For test [26], the target named is T4, porcine serum albumin. As to the kind of experiment: binding ELISA on coated albumin, pH 6.0, panel 'Porcine SA Binding at pH 6.0'. Here is the method:
as §1, §2

Test [27] addresses T7, mouse serum albumin. Put plainly: Biacore, immobilised MSA, pH 6.0. The source says:
(§4) […] Fc2-1, Fc3-1 and Fc4-1 kinetic data was blank subtracted and fit to a 1:1 Langmuir binding model (BIAcore Evalution software; GE) to calculate KD values.

For test [28], the target named is T1, human serum albumin. As to the kind of experiment: Biacore, immobilised HSA, running buffer pH 7.4. Here is the method: (§5) Affinities for mouse, human, and cynomolgus serum were also measured at pH 7.4 for four (4) AFFIMER® binders using surface plasmon resonance (SPR) (FIG. 5, Table 5). […] A concentration titration of AFFIMER® monomers was run as analyte at a flow rate of 30 μl/min or 60 μl/min. Fc2-1, Fc3-1 and Fc4-1 kinetic data was blank subtracted and fit to a 1:1 Langmuir binding model (BIAcore Evalution software; GE) to calculate KD values.

For test [29], the target named is T6, cynomolgus serum albumin. Put plainly: SPR (Biacore T200), albumin amine-coupled to CM5, Affimer analyte, pH 7.4. Here is the method: as §5
Background: Surface plasmon resonance follows binding to a sensor surface in real time, without labels.

In test [30] the target is T7, mouse serum albumin. The test is described as above. As to the method: as §5
Test [31] deals with T1, human serum albumin. Described as above. As to the method: as §5
Test [32] deals with T5, equine serum albumin. Put plainly: binding ELISA on coated albumin, pH 7.4, panel 'Equine SA Binding at pH 7.4' (Table 6 gives NA for this pair). As to the method:
as §1, §2

In test [33] the target is T1, human serum albumin. Put plainly: Biacore, immobilised HSA, running buffer pH 6.0.
Text: as §4

The EC50 (read off the curve) is the concentration at which the effect is half-maximal. A low value points to greater potency. Broadly, the EC50 is the concentration at which the effect is half-maximal. Read a high EC50 as lower potency in that assay. One may read the Kd as the equilibrium constant for the complex coming apart. Low readings indicate a tighter complex, high ones a looser complex. In general, koff refers to the first-order rate constant of dissociation. The low end stands for slow dissociation, the high end for fast dissociation. The kon is the rate constant with which the complex forms. Higher therefore signals faster complex formation.

T2 sequence (P49822 25-608 limits assumed): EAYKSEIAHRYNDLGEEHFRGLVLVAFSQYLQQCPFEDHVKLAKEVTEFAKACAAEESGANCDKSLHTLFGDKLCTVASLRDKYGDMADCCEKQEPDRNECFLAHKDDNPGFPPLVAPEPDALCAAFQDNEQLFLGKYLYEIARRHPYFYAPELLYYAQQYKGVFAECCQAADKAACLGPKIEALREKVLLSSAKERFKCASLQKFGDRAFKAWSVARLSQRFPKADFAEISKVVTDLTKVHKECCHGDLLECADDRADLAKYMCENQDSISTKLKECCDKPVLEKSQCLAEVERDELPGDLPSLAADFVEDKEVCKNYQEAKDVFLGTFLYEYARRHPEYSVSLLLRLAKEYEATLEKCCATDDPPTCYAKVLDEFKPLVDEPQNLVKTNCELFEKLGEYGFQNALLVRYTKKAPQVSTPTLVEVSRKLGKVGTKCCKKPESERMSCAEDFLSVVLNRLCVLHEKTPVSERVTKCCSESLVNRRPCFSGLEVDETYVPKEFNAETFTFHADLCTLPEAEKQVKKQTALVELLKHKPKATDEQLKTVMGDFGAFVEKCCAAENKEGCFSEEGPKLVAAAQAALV
T6 sequence (A2V9Z4 25-608): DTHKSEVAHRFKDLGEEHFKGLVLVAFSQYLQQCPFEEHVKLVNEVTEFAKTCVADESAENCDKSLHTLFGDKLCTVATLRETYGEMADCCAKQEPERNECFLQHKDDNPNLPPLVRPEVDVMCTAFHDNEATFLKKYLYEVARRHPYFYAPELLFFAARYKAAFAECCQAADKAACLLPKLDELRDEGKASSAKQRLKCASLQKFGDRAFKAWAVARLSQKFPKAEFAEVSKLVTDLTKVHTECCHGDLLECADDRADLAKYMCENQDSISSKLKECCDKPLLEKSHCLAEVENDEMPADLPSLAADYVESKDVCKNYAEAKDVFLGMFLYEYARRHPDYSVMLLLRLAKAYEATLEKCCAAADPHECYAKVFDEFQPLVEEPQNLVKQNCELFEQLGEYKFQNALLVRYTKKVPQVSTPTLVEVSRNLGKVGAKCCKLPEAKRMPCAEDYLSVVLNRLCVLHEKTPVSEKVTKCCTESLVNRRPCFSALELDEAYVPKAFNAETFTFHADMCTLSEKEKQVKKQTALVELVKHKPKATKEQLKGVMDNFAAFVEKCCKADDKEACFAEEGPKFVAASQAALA
T3 sequence (P02770 25-608 limits assumed): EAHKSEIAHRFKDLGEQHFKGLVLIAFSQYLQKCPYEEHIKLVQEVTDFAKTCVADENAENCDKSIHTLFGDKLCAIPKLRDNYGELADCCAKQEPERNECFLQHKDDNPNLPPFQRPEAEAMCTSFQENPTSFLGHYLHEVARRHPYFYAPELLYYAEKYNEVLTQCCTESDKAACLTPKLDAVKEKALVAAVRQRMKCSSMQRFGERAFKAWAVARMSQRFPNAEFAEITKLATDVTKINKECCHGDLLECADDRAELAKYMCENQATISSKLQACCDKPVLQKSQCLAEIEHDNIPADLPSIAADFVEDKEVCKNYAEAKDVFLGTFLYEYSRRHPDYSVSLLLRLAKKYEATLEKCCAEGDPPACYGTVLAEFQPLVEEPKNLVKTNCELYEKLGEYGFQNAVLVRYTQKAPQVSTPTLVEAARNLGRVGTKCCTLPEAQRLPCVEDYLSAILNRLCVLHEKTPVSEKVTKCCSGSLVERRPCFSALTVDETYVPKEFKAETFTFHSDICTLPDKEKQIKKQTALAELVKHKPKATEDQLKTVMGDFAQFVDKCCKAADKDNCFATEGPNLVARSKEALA
T7 sequence (P07724 25-608 limits assumed): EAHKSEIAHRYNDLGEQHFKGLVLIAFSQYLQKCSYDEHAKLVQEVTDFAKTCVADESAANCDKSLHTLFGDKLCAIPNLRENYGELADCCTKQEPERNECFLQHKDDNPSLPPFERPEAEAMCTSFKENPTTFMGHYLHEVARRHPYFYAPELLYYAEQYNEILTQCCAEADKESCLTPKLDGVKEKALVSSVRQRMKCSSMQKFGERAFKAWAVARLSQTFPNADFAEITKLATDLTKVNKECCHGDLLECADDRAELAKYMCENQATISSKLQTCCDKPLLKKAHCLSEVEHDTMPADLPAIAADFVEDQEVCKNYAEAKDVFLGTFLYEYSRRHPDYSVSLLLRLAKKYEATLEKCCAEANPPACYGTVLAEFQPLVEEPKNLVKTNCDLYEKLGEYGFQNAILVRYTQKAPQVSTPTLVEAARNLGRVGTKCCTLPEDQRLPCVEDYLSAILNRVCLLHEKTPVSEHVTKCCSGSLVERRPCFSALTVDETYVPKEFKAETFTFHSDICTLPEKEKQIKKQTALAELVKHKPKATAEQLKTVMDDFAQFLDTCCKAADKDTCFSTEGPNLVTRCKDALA
T4 sequence (P08835 25-607 limits assumed): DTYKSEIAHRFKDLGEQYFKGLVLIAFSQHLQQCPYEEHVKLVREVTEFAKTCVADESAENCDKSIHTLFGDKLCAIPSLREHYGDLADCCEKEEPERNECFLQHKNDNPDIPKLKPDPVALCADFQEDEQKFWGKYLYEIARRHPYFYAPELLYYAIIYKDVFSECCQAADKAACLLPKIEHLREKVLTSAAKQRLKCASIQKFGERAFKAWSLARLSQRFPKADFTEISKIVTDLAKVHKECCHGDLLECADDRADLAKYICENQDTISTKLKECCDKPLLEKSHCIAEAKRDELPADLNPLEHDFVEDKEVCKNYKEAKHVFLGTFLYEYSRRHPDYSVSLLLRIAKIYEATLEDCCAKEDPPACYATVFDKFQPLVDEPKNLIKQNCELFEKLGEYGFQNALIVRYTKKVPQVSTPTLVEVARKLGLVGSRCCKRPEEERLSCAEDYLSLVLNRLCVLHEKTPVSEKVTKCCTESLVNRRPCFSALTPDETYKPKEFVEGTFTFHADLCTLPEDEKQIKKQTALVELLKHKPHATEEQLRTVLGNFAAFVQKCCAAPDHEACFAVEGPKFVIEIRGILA
rabbit serum albumin, sequence (P49065 25-608 limits assumed): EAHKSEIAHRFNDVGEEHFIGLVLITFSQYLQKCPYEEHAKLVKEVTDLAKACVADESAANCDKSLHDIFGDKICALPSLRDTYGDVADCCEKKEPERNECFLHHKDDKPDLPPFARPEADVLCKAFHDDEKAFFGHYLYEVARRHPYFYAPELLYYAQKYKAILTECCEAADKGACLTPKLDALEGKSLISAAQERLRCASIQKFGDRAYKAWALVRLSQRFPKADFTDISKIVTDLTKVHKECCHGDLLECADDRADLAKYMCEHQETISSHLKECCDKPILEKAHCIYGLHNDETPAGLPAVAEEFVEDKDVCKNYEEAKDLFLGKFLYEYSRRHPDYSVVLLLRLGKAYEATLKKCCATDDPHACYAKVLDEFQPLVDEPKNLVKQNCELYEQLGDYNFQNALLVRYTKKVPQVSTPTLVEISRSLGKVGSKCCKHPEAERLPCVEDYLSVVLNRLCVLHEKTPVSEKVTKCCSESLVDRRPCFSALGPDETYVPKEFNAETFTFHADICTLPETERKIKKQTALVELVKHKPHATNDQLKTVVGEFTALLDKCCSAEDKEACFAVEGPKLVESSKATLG
T5 sequence (P35747 25-607 limits assumed): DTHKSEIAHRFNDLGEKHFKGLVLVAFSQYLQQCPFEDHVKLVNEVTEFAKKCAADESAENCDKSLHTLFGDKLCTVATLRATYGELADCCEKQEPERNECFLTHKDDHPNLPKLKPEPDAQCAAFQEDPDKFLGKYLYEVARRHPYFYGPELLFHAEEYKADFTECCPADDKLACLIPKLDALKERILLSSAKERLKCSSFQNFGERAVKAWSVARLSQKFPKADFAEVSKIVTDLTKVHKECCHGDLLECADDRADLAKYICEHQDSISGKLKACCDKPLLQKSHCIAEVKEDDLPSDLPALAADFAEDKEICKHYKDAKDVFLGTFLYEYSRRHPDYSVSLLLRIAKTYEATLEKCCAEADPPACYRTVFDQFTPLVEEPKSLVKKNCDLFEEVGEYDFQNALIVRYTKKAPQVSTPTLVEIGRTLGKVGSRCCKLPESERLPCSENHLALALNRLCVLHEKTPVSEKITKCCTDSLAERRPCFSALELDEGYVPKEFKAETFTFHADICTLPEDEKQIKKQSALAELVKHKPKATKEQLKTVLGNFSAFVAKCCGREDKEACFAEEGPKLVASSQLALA

B1: HSA-41 loop 4 deletion (designed binder)
chain: MIPRGLSEAKPATPEIQEIVDKVKPQLEEKTNETYGKLEAVQYKTQVLANFFQRRWPGSTNYYIKVRAGDNKYMHLKVFNGPADRVLTGYQVDKNKDDELTGFHHHHHH
notes: also called loop 4 knockout mutant (deletion)
Turning to B1, in the test with human serum albumin [1], the binding result was “no binding”.

B2: HSA-41 x9 glycine loops (designed binder)
chain: MIPRGLSEAKPATPEIQEIVDKVKPQLEEKTNETYGKLEAVQYKTQVLANFFQRRWPGSTNYYIKVRAGDNKYMHLKVFNGPGGGGGGGGGADRVLTGYQVDKNKDDELTGFHHHHHH
notes: also called HSA-41 loop 4 replaced with 9 glycine residues; loop 4 knockout mutant
Turning to B2, in the test with human serum albumin [1], the binding result is “no binding”.

B3: HSA-31 (designed binder)
chain: MIPRGLSEAKPATPEIQEIVDKVKPQLEEKTNETYGKLEAVQYKTQVLAVWGPEYQHQSTNYYIKVRAGDNKYMHLKVFNGPNAGWPLVPEADRVLTGYQVDKNKDDELTGFHHHHHH
Turning to B3, the “EC50 (read off the curve)” value with human serum albumin [2] was roughly 1 nM; in the test with rat serum albumin [22] it was roughly 0.04 nM; with cynomolgus serum albumin [23] it was roughly 0.6 nM; in the test with mouse serum albumin [24] it was roughly 0.06 nM; in the test with canine serum albumin [25] it was roughly 2 nM; with porcine serum albumin [26], roughly 9 nM. Moreover, the EC50 stood at 3.17 nM in the test with canine serum albumin [3]; 211 nM with rabbit serum albumin; 0.39 nM with rat serum albumin [4]; 2.6 nM in the test with porcine serum albumin [5]; 0.25 nM in the test with equine serum albumin [6]; 0.43 nM with cynomolgus serum albumin [7]. Moreover, the EC50 came out at 0.03 nM with mouse serum albumin [8] and 0.47 nM with human serum albumin [9]. In addition, the Kd was determined as 18.5 nM with cynomolgus serum albumin [10]; 3.7 nM in the test with mouse serum albumin [11]; 21.1 nM in the test with human serum albumin [12]; 83 nM with cynomolgus serum albumin [16]; 3.3 nM with mouse serum albumin [17]; 15.3 nM with human serum albumin [18]. In addition, the koff came to 0.00218 s⁻¹ with cynomolgus serum albumin [13]; 0.00245 s⁻¹ with human serum albumin [15]; 0.0037 s⁻¹ with cynomolgus serum albumin [19]; 0.000575 s⁻¹ with mouse serum albumin [20]; 0.00317 s⁻¹ with human serum albumin [21]. Also, the kon in the test with cynomolgus serum albumin [13] turned out to be 118000 M⁻¹ s⁻¹; in the test with mouse serum albumin [14], 166000 M⁻¹ s⁻¹; with human serum albumin [15], 116000 M⁻¹ s⁻¹; with cynomolgus serum albumin [19], 44600 M⁻¹ s⁻¹; in the test with mouse serum albumin [20], 176000 M⁻¹ s⁻¹; in the test with human serum albumin [21], 208000 M⁻¹ s⁻¹.

B4: HSA-18 (designed binder)
chain: MIPRGLSEAKPATPEIQEIVDKVKPQLEEKTNETYGKLEAVQYKTQVLADWWQAKWPHSTNYYIKVRAGDNKYMHLKVFNGPYKVHQSSGGADRVLTGYQVDKNKDDELTGFHHHHHH
notes: also called HSA-18 monomer
Consider B4, for which the Kd in the test with mouse serum albumin [27] amounted to 49.4 nM; in the test with cynomolgus serum albumin [10], 68.7 nM; with mouse serum albumin [11], 618 nM; in the test with human serum albumin [12] it was 17.9 nM; with cynomolgus serum albumin [16], 106 nM; with mouse serum albumin [17], 981 nM. Besides, the Kd turned out to be 36.1 nM with human serum albumin [18]; 109 nM in the test with human serum albumin [28]; 542 nM in the test with cynomolgus serum albumin [29]; 2180 nM in the test with mouse serum albumin [30]; 146 nM with human serum albumin [31]; 152 nM with human serum albumin [33]. Moreover, the koff in the test with mouse serum albumin [27] stood at 0.0298 s⁻¹; in the test with human serum albumin [28], 0.0078 s⁻¹; in the test with cynomolgus serum albumin [29] it was 0.0261 s⁻¹; in the test with mouse serum albumin [30], 0.0742 s⁻¹; in the test with human serum albumin [31], 0.00789 s⁻¹; with human serum albumin [33], 0.0122 s⁻¹. Further, the kon with mouse serum albumin [27] was determined as 602000 M⁻¹ s⁻¹; in the test with human serum albumin [28] it was 71400 M⁻¹ s⁻¹; with cynomolgus serum albumin [29], 48300 M⁻¹ s⁻¹; with mouse serum albumin [30] it was 34100 M⁻¹ s⁻¹; in the test with human serum albumin [31], 54100 M⁻¹ s⁻¹; with human serum albumin [33] it was 80000 M⁻¹ s⁻¹. Besides, the “EC50 (read off the curve)” value with human serum albumin [2] is roughly 0.2 nM; with rat serum albumin [22], roughly 3 nM; in the test with cynomolgus serum albumin [23], roughly 0.1 nM; with canine serum albumin [25], roughly 10 nM. Also, the EC50 with canine serum albumin [3] came to 96.5 nM; with rabbit serum albumin it was 847 nM; in the test with rat serum albumin [4] it was 89.4 nM; with porcine serum albumin [5] it was 615 nM; with cynomolgus serum albumin [7], 7.14 nM; in the test with human serum albumin [9], 1.41 nM. For the same molecule, the binding result in the test with equine serum albumin [32] was “binds”.

The values above are taken from patent US20230272011A1 (AVACTA LIFE SCIENCES, published 2023).
